Data on 1 molecule can be found in PMC6713926, “Structural Basis for Properdin Oligomerization and Convertase Stimulation in the Human Complement System” (Frontiers in Immunology, 2019).

The assay deals with T1, Biotinylated C3b (human, UniProt P01024 23-667; P01024 749-1663, biotin (Maleimide-PEG2-Biotin)).
T1 construct: complement C3, human, beta chain; complement C3, human, alpha' chain of C3b; also called biotin-C3b; immobilized C3b; source: made from plasma C3 by trypsin cleavage in the presence of Maleimide-PEG2-Biotin, purified by cation exchange
Briefly: BLI; biotinylated C3b on streptavidin sensors; FPht variants at 100 to 1.56 μg/mL, 60 s steps; 30°C; 20 mM MES pH 6.0, 100 mM NaCl, 0.05% Tween, 1 mg/mL BSA; steady state 1:1 fit (for WT also kinetic analysis). To be noted: both partners purified. (In BLI a coated tip is dipped into the sample, and binding shifts an interference pattern.)

T1 sequence (P01024 23-667, chain 1 of 2): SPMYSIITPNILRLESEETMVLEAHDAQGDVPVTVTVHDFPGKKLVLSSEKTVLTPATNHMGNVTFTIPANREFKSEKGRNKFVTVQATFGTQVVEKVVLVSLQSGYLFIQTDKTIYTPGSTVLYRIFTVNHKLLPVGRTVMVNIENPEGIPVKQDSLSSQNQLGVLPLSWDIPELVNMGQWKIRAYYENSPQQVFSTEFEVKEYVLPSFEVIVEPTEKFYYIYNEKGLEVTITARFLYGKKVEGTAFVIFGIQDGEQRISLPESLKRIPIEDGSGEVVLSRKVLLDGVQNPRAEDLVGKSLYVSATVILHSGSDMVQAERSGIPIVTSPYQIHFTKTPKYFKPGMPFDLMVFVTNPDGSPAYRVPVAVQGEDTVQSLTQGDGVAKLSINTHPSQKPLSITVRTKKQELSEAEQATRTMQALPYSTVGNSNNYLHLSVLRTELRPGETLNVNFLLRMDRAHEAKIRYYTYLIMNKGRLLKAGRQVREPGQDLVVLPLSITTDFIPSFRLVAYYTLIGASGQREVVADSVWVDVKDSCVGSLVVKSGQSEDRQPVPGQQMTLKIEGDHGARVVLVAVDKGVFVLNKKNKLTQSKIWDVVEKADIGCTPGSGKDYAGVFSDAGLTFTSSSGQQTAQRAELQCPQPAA
T1 sequence (P01024 749-1663, chain 2 of 2): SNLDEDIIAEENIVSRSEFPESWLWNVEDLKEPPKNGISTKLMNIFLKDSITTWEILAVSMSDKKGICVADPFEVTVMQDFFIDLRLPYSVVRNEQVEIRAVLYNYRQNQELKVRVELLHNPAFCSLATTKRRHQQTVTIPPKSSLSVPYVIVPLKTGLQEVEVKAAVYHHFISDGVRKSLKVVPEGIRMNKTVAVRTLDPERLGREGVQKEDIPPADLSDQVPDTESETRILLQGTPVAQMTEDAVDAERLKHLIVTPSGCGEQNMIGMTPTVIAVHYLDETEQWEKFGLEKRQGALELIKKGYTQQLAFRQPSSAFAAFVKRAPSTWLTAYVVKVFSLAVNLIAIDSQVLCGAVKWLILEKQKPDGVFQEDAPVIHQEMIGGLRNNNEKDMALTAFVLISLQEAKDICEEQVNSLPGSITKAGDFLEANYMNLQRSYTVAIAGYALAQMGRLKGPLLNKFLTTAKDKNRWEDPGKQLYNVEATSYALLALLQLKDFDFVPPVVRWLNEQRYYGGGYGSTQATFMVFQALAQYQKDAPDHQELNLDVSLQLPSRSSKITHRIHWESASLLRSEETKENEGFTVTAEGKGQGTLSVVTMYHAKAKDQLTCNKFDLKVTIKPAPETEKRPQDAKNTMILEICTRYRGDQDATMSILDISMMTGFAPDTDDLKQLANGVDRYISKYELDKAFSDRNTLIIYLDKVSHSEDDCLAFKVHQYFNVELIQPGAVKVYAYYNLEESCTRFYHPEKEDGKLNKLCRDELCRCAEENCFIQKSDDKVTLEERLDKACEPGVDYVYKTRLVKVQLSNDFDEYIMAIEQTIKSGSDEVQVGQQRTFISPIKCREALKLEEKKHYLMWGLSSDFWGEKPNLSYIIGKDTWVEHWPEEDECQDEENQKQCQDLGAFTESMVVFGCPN

B1: FPht R353A (complex)
chain 1: DPVLCFTQYEESSGKCKGLLGGGVSVEDCCLNTAFAYQKRSGGLCQPCRSPRWSLWSTWAPCSVTCSEGSQLRYRRCVGWNGQCSGKVAPGTLEWQLQACEDQQCCPEMGGWSGWGPWEPCSVTCSKGTRTRRRACNHPAPKCGGHCPGQAQESEACDTQQVCPTHGAWATWGPWTPCSASCHGGPHEPKETRSRKCSAPEPSQKPPGKPCPGLAYEQRRCTGLPPCP
chain 2: VAGGWGPWGPVSPCPVTCGLGQTMEQRTCNHPVPQHGGPFCAGDATRTHICNTAVPCPVDGEWDSWGEWSPCIRRNMKSISCQEIPGQQSRGRTCRGAKFDGHRCAGQQQDIRHCYSIQHCPLKGSWSEWSTWGLCMPPCGPNPTRARQRLCTPLLPKYPPTVSMVEGQGEKNVTFWGRPLPRCEELQGQKLVVEEKRPCLHVPACKDPEEEEL
As usually defined, the Kd is the constant that tells how readily two partners part at equilibrium. Low values mean tighter binding, high ones weaker binding. In the case of B1, binding was characterised by a dissociation constant (Kd) of 1000 nM.
